# Test: soluble on expression in E. coli; label from the status in PepcDB or PDB records
row,Sequence,soluble on expression in E. coli
1,MAHHHHHHMQHSLRGDFVTQRSTCFRTEKERKQKALNLIKNENNAEGYFNNLNFNLEYTEELNEQITSLDPKTSIQELTNIFNDLNENRKKNFHYLIEALENVSLILAHQNDIPEKHRKSTWCKIKHDLQCDFIKEHPNIHSNFDVFIRKIQSIDEFISYIKECIHSWNNFTNEKKLQYFPKVYETYQSDKICKENNYKKINNKTECNPKESIKNESIPKECIPNENMKKECVPNGCMKKQCVPKECMKKECVTNGHMKKQCVPNECMKKQCVPKECMKKECVPNGCMKKECTPNKNDKNVNRTDINNQNKTNEKLCDKKEKKRLPSK,soluble
2,MGSDKIHHHHHHMVSMTKLVELKNSEASAVVLPRHGAGLASFDFLWRGSRLPAFRPLITEPQHEHDLALYLLAPFSNRIGGGGFAWNGRRHDLRPNVEGEPCPLHGDAWQQHWTVMDQGRTHVTLQLLSRSIPPFAYDAEITWTLDGPSLSGALTLIHRGEDPMPYGGGFHPWLVRDSDTQLHARADGWWSEDSLHLPKRWHALVDNDSSGFGAPRSLPSNFFNTVYTGWHGRADIWWPGRGLALQIEAQAPLNRYIVYSPGAEADFFCFEPVSHDVNAHNAPSPLKHGLVELAEGESLHLSARFTATLR,not soluble
3,MGSDKIHHHHHHMGIINAAFRLSQIERSIINKECHRTTCSLMDFIRDYTVVATDLEEAVQLRSTYNSLRRLGESDITEEDAVNILQQGTVIFNRISAYSYEELERKLVANYPNTPVLNAVDVVKKYSQKGNFKLGPVSTVLNAGEITGIVGENGNGKTTLLRILARLLSYDEGVLQYQFDGQETTEDYLIKHRIAYIPQRLESWQGTLRENLHYAATIHNIVGEENEKIVEFVIHRMGLSNFAHLGWKELSSGYKLRFELAKMLVWSPRILVLDEPLANLDINAQEWILQDFKSMASSIKNPVSVILSSQQLHEVEHVADNIIFLRNGRCDYSGAMNAFMQERDENVFELSGNFTSKELQPIFSNHAVQFSESGITIIVRTNTAITAADVLSMLISNGYTIKYFRDISTSTKQLFQL,not soluble
4,MERVNHLLQRLLGNQRFKQRYEQMKRYILEHPDVQPFLRAHERQLSADAVDRSLMKLYEFIEQHGNCRQCPGLERCNNMLPGYHPNLVVNGGRIDVEYDRCPKKVQHDERKRQESLIQSMFMPREILRASLSDVDLNDDGRIKAIRFAERFVAEYEPGKKMKGLYLHGSFGVGKTYLLAAIANELAKRNVSSLIVYVPELFREIKHSLQDQTMNEKLDYIKKVPVLMLDDLGAEAMSSWVRDDVFGPILQYRMFENLPTFFTSNFDMQQLAHHLTYSQRGEEEKVKAARIMERIRYLAYPIEITGPNRREQNI,not soluble
5,MGSDKIHHHHHHMDQGDDGDGQTANADYSIRIAAGIGAFTCDEWNGFAGTTRSDAENGYNPLVSFAFLSALEDSGCAVRRTGWQGHHVRLETAQGRLLGAVPCYLKSHSQGEYVFDHGWSDAFERAGGRYYPKLQCAVPFTPVTGPRLLVNRGEDPDAVKAGLAAGLKMVTDKLGVSSAHVTFAQESDVATLEAAGFLHRTDQQFHFFNEGFSTYDDFLATLASRKRKAMKKERREALADGITIDWLTGKDLTEKAWDDFFAFYMDTGSRKWGRPYLNRQFFSLIGERMADDILLVMARRNGRYVAGAINFIGSDALYGRNWGCIEDHPFLHFEVCYHQAIDFAIERKLKVVEAGAQGEHKLARGYRPVTMHSAHYISHPGLRNAVADYLQRERREVERMGEYLEEHTPFRKDLEE,not soluble
6,MVESNKTAADTYSLAIFRAIRRLQQAAEIHSKRLSRYGGLTPLQLLILHVLAVEGELTATQLAKLVSLSQASLSGVLDRLEGRGLLYRRRDEQDRRKSWLHLDPAGHEALAEAPPLLPEYVIERFAALPEWERHGLLAALLRAADLFGLPEEDVEEE,not soluble
7,MKTAYIAKQRQISFVKSHFSRQLEERLGLIEVQAPILSRVGDGTQDNLSGAEKAVQVKVKALPDAQFEVVHSLAKWKRQTLGQHDFSAGEGLYTHMKALRPDEDRLSPLHSVYVDQWDWERVMGDGERQFSTLKSTVEAIWAGIKATEAAVSEEFGLAPFLPDQIHFVHSQELLSRYPDLDAKGRERAIAKDLGAVFLVGIGGKLSDGHRHDVRAPDYDDWSTPSELGHAGLNGDILVWNPVLEDAFELSSMGIRVDADTLKHQLALTGDEDRLELEWHQALLRGEMPQTIGGGIGQSRLTMLLLQLPHIGQVQAGVWPAAVRESVPSLL,soluble
8,MPVYFTKRAFLPDGWAADVQIAVDELGDIQRISTGSSSSGCQVLSGPVLPGMPNLHSHAFQRMMSGLAEVAGDPQDSFWTWRDLMYRLVQQLTPEQVGVIARQLYIEMLKGGYTQVAEFHYLHHSPDGSPYNDIGEMTAQLSQAAQDAGIGMTLLPVLYSYAGFGAQPAQQGQSRFIQDTESYLRQQQVIRRQLANQPLQNQGLCFHSLRAVELSQMQQILHVSDKQLPVHIHIAEQQKEVNDCLAWCGQRPVAWLYGHLPVDSRWCLVHATHLDTSELVMLANSQAVAGLCPTTEANLGDGIFPGVDYIHHQGRWGIGSDSHVSLDVVEELRWLEYGQRLRDQRRNRLTCERQPAVADLLYSQALAGGRQACGRQISQLAVGYRADWLVLDGDDPYIAGTRSASLLNRWLFAGGKSQIRDVYVAGKAVIVDRYHPLQQQTAQAFLAVLKACQQEV,not soluble
9,MAHHHHHHMSWLTPSGSSYFLSKVVVNSAPCAPLHLLVMHRCRVAFPCVNYRPLLWRGMLQVPSRPTICDNSLKVQLRHSRISSFKQEGYYRFARAKDIHVDESCFTLLTARGGGPGGQGSNSSSNKVEMRVNMASLSEYFDEELIGNIKANECGKALTSDETQLIISSHEHRSMYQNKEECIRRLQQMIHVASWVPPVEANPIKKPSHIVSERKNERRKKSAVKKMRQTARKGLW,not soluble
10,MGSDKIHHHHHHMNRAREINYLNSIALHQPFGIVGVSGETGIGKTTVLNFVNPEGVFTVRVNISLRDSMESILYDLLHSLALSLEKVEEVSDLAKEVRKWITDEVSTIKGFSLGVSFGVNASLTHEKSIRPRFNFFKAREKLGELIKQTVQRKGKFLLIIDELDKEKKEDVLRVIDSIKNFIIMEDFVVILSLPFSIYREYAADRLRWNEAGNLENIFTDIVFVEPLKKLEIKELIIKRLGSYIELIEDGVLDIVADFSDGNPRDGLWILTKAIYDNIHKELLSKEDLINTINRTISEYTGLTLNLTENQKKAIRVLRGSVYSREKIIETLQKEGFKRTTAYSVMDQLLQKRILLVEKEGYRISGKFSYMEI,not soluble
11,MKTFFIVASLLAVGLVLAEDSEEKSEVKDVKPWKKLDFKKREPEFLKEMSQDAKTAYFGIKFNPELTKAEKTRMLKEWADQYDVEDDMQKFLDAKKADCDKKKQERKDNYERLGDLIEKADEILDDQENTWNGANEKLEALVKDENRDVMKAFQSFYPFVGRDSEGPRHGHGHGHGHRFHHGRRFGRNIGGGAAPRYNGGGIGSGISIGENPRHHNGGIGSGISMGERHRDGESYDAYGNSKHHHKKHHGF,not soluble
12,PSTVPIMHQVSATMRSITLSWPQPEQPNGIILDYEIRYYEKEHNEFNSSMARSQTNTARIDGLRPGMVYVVQVRARTVAGYGKFSGKMCFQTLTD,soluble
13,MRYADRVTFVKTTDEQYNPDLGEYTHTEVISITKPCFVMDMGMEKSVQIFGDYQKDRKVIYLKQPYTKAFDYCEYEGRRYKTQANKLGAIVFYLEGDDSIGG,not soluble
14,MSLEGEKRVELHLHSPMSQMDAVTGIGKLVEQAKKWGHEAIALTDHAVVQSFPDAYSAAKKHGIKMIYGMEANLVDDGVPIAYNAAHRLLEEETYVVFDVETTGLSAVYDTIIELAAVKVKGGEIIDKFEAFANPHRPLSATIIELTGITDDMLQDAPDVVDVIRDFREWIGDDILVAHNASFDMGFLNVAYKKLLEVEKAKNPVIDTLELGRFLYPEFKNHRLNTLCKKFDIELTQHHRAIYDTEATAYLLLKMLKDAAEKGIQYHDELNENMGQSNAYQRSRPYHATLLAVNSTGLKNLFKLVSLSHIHYFYRVPRIPRSQLEKYREGLLIGSACDRGEVFEGMMQKSPEEVEDIASFYDYLEVQPPEVYRHLLELELVRDEKALKEIIANITKLGEKLNKPVVATGNVHYLNDEGHHHHHH,soluble
15,SSFKREGDDWSQLNVLKKRRVGDLLASYIPEDEALMLRDGRFACAICPHRPVLDTLAMLTAHRAGKKHLSSLKLFYGKKQTGKGTEQNPRQQNELKTESKTEAPLLTQTRIITQNALHRAPHYNSCCRRKHRPEAPAPSVSSPPLPTAEVQLQSAEISKEPEPRERSDAKESAALLASAPMSPTKRRVLNHYLTLRSSGWVPDGRGRWIKDENVEFDSDEEEPPDLPLD,soluble
16,SEEEHPVSHKKSKKKSKKHKEKDQIKKLDIETMEEKEEDLQREETAKLSNASPNPNEGVKEGCTASMEPSSALELPDYLIKYIAIVSYEQRQNYKDDFNAEYDEYRALHARMETVARRFIKLDAQRKRLSPGSKEYQNVHEEVLQEYQKIKQSSPNYHEEKYRCEYLHNKLAHIKRLIGEFDQQQAESWH,soluble
17,MKEIKLILTDIDGVWTDGGMFYDQTGNEWKKFNTSDSAGIFWAHNKGIPVGILTGEKTEIVRRRAEKLKVDYLFQGVVDKLSAAEELCNELGINLEQVAYIGDDLNDAKLLKRVGIAGVPASAPFYIRRLSTIFLEKRGGEGVFREFVEKVLGINLEDFIAVIQ,soluble
18,MGSDKIHHHHHHMLDNSIPTDSCLVSGATVSTDIETLYCNHHDWLQVWLRRRLSSAVDASDLAHDTFVRVLVSGRMPNAEQSRAFLTQIAKGLAVDLYRRRAIEEAYLAALAQLPENLAPSAEERVLALQVLLLLDTALGSLPSRVREVFLLSRLDGLTYSDIAQRRGISVATVRKYMLRAAQACHCVLNSPTGTAP,not soluble
19,MSGAAAASAAGYDRHITIFSPEGRLYQVEYAFKATNQTNINSLAVRGKDCTVVISQKKVPDKLLDPTTVSYIFCISRTIGMVVNGPIPDARNAALRAKAEAAEFRYKYGYDMPCDVLAKRMANLSQIYTQRAYMRPLGVILTFVSVDEELGPSIYKTDPAGYYVGYKATATGPKQQEITTNLENHFKKSKIDHINEESWEKVVEFAITHMIDALGTEFSKNDLEVGVATKDKFFTLSAENIEERLVAIAEQD,soluble
20,MALQNISQNDFALHVQKAEQKSFMQTLEMAKLLSKRGFTLNYIAWLENGTIEISAILYSMPMTGGRYFEINCGPVVTRDKHLTDFYRELKDYVKEKGALELVIKPYDTYQTFDGDGQATSAEKKELISQLTNLGYHFDGLQRDYPNGEPDWHYVKDLSDISEQTLLKSFSKKGRPLVKKAKTFGTKLRRLNRDELNLFKEITSATSDRREYSDKSLDYYQDFYDSFGNNAEFMIASLNFENYLSHLQRDQNKLGNKIAKLQADLEKNPHSEKKQNQLRELSSQFDTFTTRQEEAQKFITKYGKKDVILAGSLFVYTPQEAVYLFSGSYPEFNKFYAPALLQEHVMLEALKRGISFYNLLGITGHFDNSDGVLRFKQNFNGYIVRKMGTFHYYPNPLKYRLLNTIKKILRR,not soluble
21,MGSDKIHHHHHHMFRYDVISNKKNVNPHILALHHHNEKTWISSSSGGVFASLTDYALRQAGVIFGAIYDDNFVVVHRRAETQEDTLKFRGSKYVQSNLTGIYQQVKFYLQEQRFVLFSGTPCQVEGLKGYLQRSYDNLLTVDILCHGVPSPRVFHDYLNFIRQNSDFHFTGIFMKDKTFGWGYQNSRLFFGKNASQFNTVLSRLWNDIFYSHLTTRPSCHACRFTNYLRPGDITIGDFWGIEKHHPQFTDSRGISLIMLNNTKAEIVWNHIKDDFNYLESNIKECIQPNLKYPVPEPVNKATFWQDYASMPFFQIMNKYYRITHQDLLKNRFYMILLTLKKRFT,not soluble
22,MAHHHHHHMLRLLPLRLASKVTAGNAKNQAGHPRRKAKLFHVIPGTPVTPMEKLKEQRRRYGQDRHSRLPEYRPGKNVRLDPNTFTLYATTKGVMTIRESRINPKYKWLEVEPDIQKVYRSSQMRRALAARGMTSQMVEKNEHYRSEMDLLLEPHWRQRVMRVPKATERFKDPNLFVRGVITELTPMDRYCYE,not soluble

# From the DeepSol protein solubility set
